Consider two substances from paper PMC3999984.

Experiment [1] has as its target pT18c-Zip (leucine zipper fragment encoded by control plasmid pUT18C-zip). The experiment can be described thus: two-hybrid; bacterial adenylate cyclase two-hybrid (BACTH) in cya- E. coli BTH101; bait RbaW, preys in pKNT25 or pKT25; β-galactosidase activity (units mg^-1 dry weight) of 3 replicate co-transformants.
Experiment [2] has as its target pT18c-RbaW (RbaW in BACTH vector pUT18c) (Rhodobacter capsulatus). The experiment is described as above.

Take “KT-Zip (leucine zipper fragment encoded by control plasmid pKT25-zip) (domain or fragment)”: the β-galactosidase activity in experiment [1] was found to be 7340 units mg^-1. In experiment [2], “pKNT25-RbaV (RbaV in BACTH vector pKNT25) (natural protein)” gave a β-galactosidase activity of 1440 units mg^-1.
